The target in the experiment is IGF-1 receptor (IGF-1R) on primary mouse lung fibroblasts / in mouse lung (mouse) (UniProt Q60751). Nature of the experiment: cell-based or functional assay.
Chain of IGF-1 receptor (IGF-1R) on primary mouse lung fibroblasts / in mouse lung (mouse) (Q60751 31-1373): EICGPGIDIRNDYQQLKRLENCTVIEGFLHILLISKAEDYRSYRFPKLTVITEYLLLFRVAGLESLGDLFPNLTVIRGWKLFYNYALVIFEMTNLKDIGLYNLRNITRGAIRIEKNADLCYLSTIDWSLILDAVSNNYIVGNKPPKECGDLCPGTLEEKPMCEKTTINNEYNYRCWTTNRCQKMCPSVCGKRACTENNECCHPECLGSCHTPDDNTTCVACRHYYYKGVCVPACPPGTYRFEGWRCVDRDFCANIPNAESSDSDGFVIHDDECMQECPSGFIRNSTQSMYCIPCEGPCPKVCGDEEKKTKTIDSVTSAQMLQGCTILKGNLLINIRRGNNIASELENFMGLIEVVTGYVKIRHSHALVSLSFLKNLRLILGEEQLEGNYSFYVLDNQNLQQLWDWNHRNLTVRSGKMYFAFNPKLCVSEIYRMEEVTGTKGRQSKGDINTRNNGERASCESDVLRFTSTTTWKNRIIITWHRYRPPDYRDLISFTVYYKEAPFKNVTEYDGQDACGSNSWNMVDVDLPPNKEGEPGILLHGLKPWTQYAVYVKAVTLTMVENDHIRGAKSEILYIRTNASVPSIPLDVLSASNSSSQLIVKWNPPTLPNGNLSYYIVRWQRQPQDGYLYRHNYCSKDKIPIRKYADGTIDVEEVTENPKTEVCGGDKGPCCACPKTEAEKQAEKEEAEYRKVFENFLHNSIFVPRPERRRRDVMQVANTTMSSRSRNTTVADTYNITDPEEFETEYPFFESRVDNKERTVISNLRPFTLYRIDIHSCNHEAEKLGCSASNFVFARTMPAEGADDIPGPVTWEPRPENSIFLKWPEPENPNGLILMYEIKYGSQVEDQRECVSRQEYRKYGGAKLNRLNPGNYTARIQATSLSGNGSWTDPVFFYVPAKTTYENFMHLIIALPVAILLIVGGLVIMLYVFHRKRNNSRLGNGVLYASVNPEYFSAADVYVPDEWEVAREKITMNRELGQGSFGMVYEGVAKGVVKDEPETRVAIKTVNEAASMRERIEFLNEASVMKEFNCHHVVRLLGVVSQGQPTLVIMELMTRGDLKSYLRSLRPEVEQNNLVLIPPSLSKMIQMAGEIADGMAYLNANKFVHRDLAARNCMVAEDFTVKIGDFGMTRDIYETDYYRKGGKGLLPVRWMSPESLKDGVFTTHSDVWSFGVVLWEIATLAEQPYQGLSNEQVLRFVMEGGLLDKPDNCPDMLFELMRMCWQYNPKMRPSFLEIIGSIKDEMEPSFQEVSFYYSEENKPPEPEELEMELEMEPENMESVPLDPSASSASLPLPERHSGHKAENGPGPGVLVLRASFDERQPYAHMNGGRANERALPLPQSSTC

As to IGF-1 (R&D Systems) (ligand), the migration of mouse lung fibroblasts (transwell) turned out to be 1.8 fold.

For the origin of these results see patent publication US20090016967A1.
